Test results as given in the supplement of paper PMC11136658.

System: peptide library, one residue held at a place counted from the Y acceptor
Test: relative phosphorylation of the sub-library (ratio to the mean residue at this position); higher = residue favoured
Summary of the method: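 Peptide library mixtures, biotinylated and centred on Tyr, each fixed one residue at one position from −5 to +5. Purified recombinant kinases were incubated with them for 90 min in 384-well plates alongside 50 μM ATP and γ-32P-ATP, and the captured, rinsed peptides on streptavidin membranes were measured by phosphorimaging and ImageQuant. Normalization divided each position's intensities by the sum of its 18 randomized residues (16 for the Ser/Thr-free library) and multiplied by that number, so that values give phosphorylation relative to the mean randomized residue.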

Chain of SRMS, construct: aa221-486, human (Q9H3Y6 221-486, looked up): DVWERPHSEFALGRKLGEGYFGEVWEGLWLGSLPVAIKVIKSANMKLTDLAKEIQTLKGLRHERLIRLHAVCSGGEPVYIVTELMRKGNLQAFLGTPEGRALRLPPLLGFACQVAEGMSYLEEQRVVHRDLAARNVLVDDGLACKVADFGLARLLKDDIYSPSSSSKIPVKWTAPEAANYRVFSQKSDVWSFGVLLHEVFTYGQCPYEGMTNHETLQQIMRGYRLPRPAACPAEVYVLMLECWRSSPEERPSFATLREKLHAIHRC

SRMS, construct: aa221-486, human (from UniProt Q9H3Y6)
relative phosphorylation (N fixed, at +1): 0.539
relative phosphorylation (N fixed, at +2): 1.17
relative phosphorylation (N fixed, at +3): 0.534
relative phosphorylation (N fixed, at +4): 0.818
relative phosphorylation (N fixed, at +5): 0.958
relative phosphorylation (N fixed, at -1): 0.564
relative phosphorylation (N fixed, at -2): 1.08
relative phosphorylation (N fixed, at -3): 1.26
relative phosphorylation (N fixed, at -4): 0.945
relative phosphorylation (N fixed, at -5): 1.08
relative phosphorylation (P fixed, at +1): 0.16
relative phosphorylation (P fixed, at +2): 0.742
relative phosphorylation (P fixed, at +3): 1
relative phosphorylation (P fixed, at +4): 1.27
relative phosphorylation (P fixed, at +5): 1.59
relative phosphorylation (P fixed, at -1): 0.546
relative phosphorylation (P fixed, at -2): 1.22
relative phosphorylation (P fixed, at -3): 0.923
relative phosphorylation (P fixed, at -4): 1.23
relative phosphorylation (P fixed, at -5): 1.21
relative phosphorylation (Q fixed, at +1): 1.2
relative phosphorylation (Q fixed, at +2): 0.857
relative phosphorylation (Q fixed, at +3): 0.847
relative phosphorylation (Q fixed, at +4): 1.05
relative phosphorylation (Q fixed, at +5): 0.891
relative phosphorylation (Q fixed, at -1): 0.591
relative phosphorylation (Q fixed, at -2): 1.05
relative phosphorylation (Q fixed, at -3): 0.819
relative phosphorylation (Q fixed, at -4): 1.12
relative phosphorylation (Q fixed, at -5): 1.01
relative phosphorylation (R fixed, at +1): 0.361
relative phosphorylation (R fixed, at +2): 0.635
relative phosphorylation (R fixed, at +3): 0.397
relative phosphorylation (R fixed, at +4): 0.871
relative phosphorylation (R fixed, at +5): 0.768
relative phosphorylation (R fixed, at -1): 0.351
relative phosphorylation (R fixed, at -2): 0.576
relative phosphorylation (R fixed, at -3): 0.671
relative phosphorylation (R fixed, at -4): 0.867
relative phosphorylation (R fixed, at -5): 0.946
relative phosphorylation (S fixed, at +1): 1.12
relative phosphorylation (S fixed, at +2): 1.07
relative phosphorylation (S fixed, at +3): 0.784
relative phosphorylation (S fixed, at +4): 0.971
relative phosphorylation (S fixed, at +5): 1
relative phosphorylation (S fixed, at -1): 0.5
relative phosphorylation (S fixed, at -2): 1.12
relative phosphorylation (S fixed, at -3): 1.04
relative phosphorylation (S fixed, at -4): 0.882
relative phosphorylation (S fixed, at -5): 0.971
relative phosphorylation (T fixed, at +1): 1.12
relative phosphorylation (T fixed, at +2): 1.26
relative phosphorylation (T fixed, at +3): 1.01
relative phosphorylation (T fixed, at +4): 0.923
relative phosphorylation (T fixed, at +5): 1
relative phosphorylation (T fixed, at -1): 1.26
relative phosphorylation (T fixed, at -2): 0.998
relative phosphorylation (T fixed, at -3): 1.01
relative phosphorylation (T fixed, at -4): 0.754
relative phosphorylation (T fixed, at -5): 0.879
relative phosphorylation (V fixed, at +1): 1.35
relative phosphorylation (V fixed, at +2): 1.07
relative phosphorylation (V fixed, at +3): 1.6
relative phosphorylation (V fixed, at +4): 0.884
relative phosphorylation (V fixed, at +5): 0.896
relative phosphorylation (V fixed, at -1): 1.83
relative phosphorylation (V fixed, at -2): 1.13
relative phosphorylation (V fixed, at -3): 0.792
relative phosphorylation (V fixed, at -4): 0.849
relative phosphorylation (V fixed, at -5): 0.903
relative phosphorylation (W fixed, at +1): 1.01
relative phosphorylation (W fixed, at +2): 1.16
relative phosphorylation (W fixed, at +3): 1.27
relative phosphorylation (W fixed, at +4): 1.09
relative phosphorylation (W fixed, at +5): 0.942
relative phosphorylation (W fixed, at -1): 1.1
relative phosphorylation (W fixed, at -2): 0.856
relative phosphorylation (W fixed, at -3): 0.994
relative phosphorylation (W fixed, at -4): 1.2
relative phosphorylation (W fixed, at -5): 0.962
relative phosphorylation (pThr fixed, at +1): 2.26
relative phosphorylation (pThr fixed, at +2): 2.43
relative phosphorylation (pThr fixed, at +3): 0.579
relative phosphorylation (pThr fixed, at +4): 1.07
relative phosphorylation (pThr fixed, at +5): 0.972
relative phosphorylation (pThr fixed, at -1): 1.2
relative phosphorylation (pThr fixed, at -2): 1.19
relative phosphorylation (pThr fixed, at -3): 1.02
relative phosphorylation (pThr fixed, at -4): 0.958
relative phosphorylation (pThr fixed, at -5): 1.03
relative phosphorylation (pTyr fixed, at +1): 2.12
relative phosphorylation (pTyr fixed, at +2): 3.06
relative phosphorylation (pTyr fixed, at +3): 1.02
relative phosphorylation (pTyr fixed, at +4): 1.47
relative phosphorylation (pTyr fixed, at +5): 1.07
relative phosphorylation (pTyr fixed, at -1): 1.38
relative phosphorylation (pTyr fixed, at -2): 1.44
relative phosphorylation (pTyr fixed, at -3): 1.51
relative phosphorylation (pTyr fixed, at -4): 1.27
relative phosphorylation (pTyr fixed, at -5): 1.21
